# PMC10079538, “Unusual PDGFRB fusion reveals novel mechanism of kinase activation in Ph-like B-ALL” (Leukemia, 2023)
# B1: recombinant truncated PDGFRB (PDGFRB^584-1106) (domain or fragment, human, UniProt P09619 584-1106, looked up)
# chain: PMQLPYDSTWELPRDQLVLGRTLGSGAFGQVVEATAHGLSHSQATMKVAVKMLKSTARSSEKQALMSELKIMSHLGPHLNVVNLLGACTKGGPIYIITEYCRYGDLVDYLHRNKHTFLQHHSDKRRPPSAELYSNALPVGLPLPSHVSLTGESDGGYMDMSKDESVDYVPMLDMKGDVKYADIESSNYMAPYDNYVPSAPERTCRATLINESPVLSYMDLVGFSYQVANGMEFLASKNCVHRDLAARNVLICEGKLVKICDFGLARDIMRDSNYISKGSTFLPLKWMAPESIFNSLYTTLSDVWSFGILLWEIFTLGGTPYPELPMNEQFYNAIKRGYRMAQPAHASDEIYEIMQKCWEEKFEIRPPFSQLVLLLERLLGEGYKKKYQQVDEEFLRSDHPAILRSQARLPGFHGLRSPLDTSSVLYTAVQPNEGDNDYIIPLPDPKPEVADEGPLEGSPSLASSTLNEVNTSSTISCDSPLEPQDEPEPEPQLELQVEPEPELEQLPDSGCPAPRAEAEDSFL
# notes: PDGFRB, human, residues 584-1106; truncated form encoded by the CD74^intr::PDGFRB fusion, lacks the juxtamembrane region; methods are in the supplementary file; also called truncated PDGFRB^584-1106; source: insect cells, expressed and purified
# Target: the molecule itself
# Assay: SEC; elution of the recombinant protein purified from insect cells; molecular weight from the elution
protein,measurement,value
B1,stoichiometry N,2
